Substitutions are numbered along the chain they refer to. In names and notes the source's numbering stands.
Columns and labels:
Int82N [1] = target: T1, Int82N (Enterococcus faecalis, UniProt Q7BP35 82-397); assay: EMSA; 2:1 complex; similar affinity to CI5; […] (50 mM HEPES pH 7.5, 250 mM NaCl, 5 mM DTT, 10% glycerol), […]; details: protein: recombinant; tags: 6xHis-SUMO removed by SenP2; extra N-terminal S81; chain copies: 2; 45 bp; terminal T/T mismatch as printed
T1 sequence: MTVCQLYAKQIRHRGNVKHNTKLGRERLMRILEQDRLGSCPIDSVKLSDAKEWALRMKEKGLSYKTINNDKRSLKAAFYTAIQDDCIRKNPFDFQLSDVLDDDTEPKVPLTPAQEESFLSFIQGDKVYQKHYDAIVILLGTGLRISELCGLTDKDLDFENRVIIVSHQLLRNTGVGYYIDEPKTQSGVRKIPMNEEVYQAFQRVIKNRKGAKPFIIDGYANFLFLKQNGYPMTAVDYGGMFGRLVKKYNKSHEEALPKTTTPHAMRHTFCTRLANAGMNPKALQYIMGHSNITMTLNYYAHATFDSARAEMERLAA

Int82N(R225K) = target: T2, Int82N(R225K) (Enterococcus faecalis, UniProt Q7BP35 82-397, R225K); assay: X-ray crystallography; 2 protein:1 DNA; […] (50 mM HEPES pH 7.5, 250 mM NaCl, 5 mM DTT, 10% glycerol), […]; details: protein: recombinant, tags: 6xHis-SUMO removed by SenP2, extra N-terminal S81, chain copies: 2, terminal T/T mismatch as printed
T2 sequence: T1 sequence with R144K

[2] = target: T3, Int82N (HJ-bound tetramer) (Enterococcus faecalis, UniProt Q7BP35 82-397); assay: EMSA; 4:1 protein:HJ; […] (50 mM HEPES pH 7.5, 250 mM NaCl, 5 mM DTT, 10% glycerol), […]; details: protein: recombinant; tags: 6xHis-SUMO removed by SenP2; chain copies: 4; four-way junction of 4 strands
T3 sequence: T1 sequence

Int82N(Y379F) = target: T4, Int82N(Y379F) (Enterococcus faecalis, UniProt Q7BP35 82-397, Y379F); assay: X-ray crystallography; […] (50 mM HEPES pH 7.5, 250 mM NaCl, 5 mM DTT, 10% glycerol), […]; details: protein: recombinant; tags: 6xHis-SUMO removed by SenP2; 5' overhang 6 nt
T4 sequence: T1 sequence with Y298F

Int82N [3] = target: T1, Int82N; assay: X-ray crystallography; wild-type catalytic residues; […] (50 mM HEPES pH 7.5, 250 mM NaCl, 5 mM DTT, 10% glycerol), […]; details: protein: recombinant; tags: 6xHis-SUMO removed by SenP2; extra N-terminal S81; chain copies: 2; label: 5'-32P in EMSA; none in crystals; 44 bp; terminal T/T mismatch as printed
381C = 381C (Enterococcus faecalis, UniProt Q7BP35 82-381); assay: EMSA; monomeric and higher oligomers; […] (50 mM HEPES pH 7.5, 250 mM NaCl, 5 mM DTT, 10% glycerol), […]; details: protein: recombinant; tags: 6xHis-SUMO removed by SenP2; label: 5'-32P in EMSA; none in crystals; 44 bp; terminal T/T mismatch as printed
390C = 390C (Enterococcus faecalis, UniProt Q7BP35 82-390); assay: as above; details: protein: recombinant; tags: 6xHis-SUMO removed by SenP2; label: 5'-32P in EMSA; none in crystals; 44 bp; terminal T/T mismatch as printed
Int82N [4] = target: T1, Int82N; assay: 2AP fluorescence; base-flipping readout; […] (50 mM HEPES pH 7.5, 250 mM NaCl, 5 mM DTT, 10% glycerol), […]; details: protein: recombinant; tags: 6xHis-SUMO removed by SenP2; extra N-terminal S81; chain copies: 2; label: 2AP; 44 nt strands; 2AP opposite C at one flipped base; terminal T/T mismatch
[5] = target: the molecule itself; assay: crystal structure; Int^82N (R225K or wild type) with 44 bp CI5 dsDNA at 2:1 molar ratio in Buffer C; vapor diffusion at 20°C; 2.8 Å
[6] = target: the molecule itself; assay: SEC; analytical size exclusion chromatography on Superdex 200 10/300, proteins without DNA

B1: CI6a (dsDNA)
DNA 1: TGCGATAACCTAAAATTTTATTTTCAAAATTATATGGGATTTTAG
DNA 2: CTAAAATCCCATATAATTTTGAAAATAAAATTTTAGGTTATCGCT
B1: binds (Int82N [1]); binds (Int82N(R225K); 45 bp).

B2: CI6b (dsDNA)
DNA 1: B1 DNA 1 with A20C, T21C, T22C, C25T
DNA 2: B1 DNA 2 with G21A, A24G, A25G, T26G
B2: binds (Int82N [1]); binds (Int82N(R225K); 45 bp).

B3: HJ (EMSA) (structured_DNA)
DNA 1: AGTGAACAGCCCACAAAATTTTGAAAATAAAATTTTAGGTTATCGCTGGCTAGTCCATGC
DNA 2: GCATGGACTAGCCAGCGATAACCTAAAATTTTATTAATAAAATTATATGGGATTT
DNA 3: CCAAATTTTTTACCGGGTTTTGAATTCAAAATTTTGTGGGCTGTTCACT
DNA 4: AAATCCCATATAATTTTATTTTCAAAACCCGGTAAAAAATTTGG
B3: binds [2].

B4: IRR half-site (dsDNA)
DNA 1: ATTTTCAAAATTATGGGATTTTAG
DNA 2: CTAAAATCCCATATAATTTT
B4: binds (Int82N(Y379F)).

B5: CI5 (dsDNA)
DNA 1: TGCGATAACCTAAAATTTTATAGCAAAATTATATGGGATTTTAG
DNA 2: CTAAAATCCCATATAATTTTGCTATAAAATTTTAGGTTATCGCT
B5: binds (Int82N [3]); binds (381C); binds (390C). B5: binds (Int82N(R225K); label: 5'-32P in EMSA, none in crystals, 44 bp).

B6: CI5-F (dsDNA)
DNA 1: B5 DNA 1 with A20T, C24A
DNA 2: B5 DNA 2 with G21C, T25A
modifications: 2-aminopurine (written A) at position 24 of top and 25 of bottom strand
With B6 the binding signal (Int82N [4]) was ~4.6 fold 2AP fluorescence increase.

B7: Int^82N(R225K), catalytic mutant of Tn1549 Int aa 82–397 (domain or fragment, Enterococcus faecalis)
chain: SMTVCQLYAKQIRHRGNVKHNTKLGRERLMRILEQDRLGSCPIDSVKLSDAKEWALRMKEKGLSYKTINNDKRSLKAAFYTAIQDDCIRKNPFDFQLSDVLDDDTEPKVPLTPAQEESFLSFIQGDKVYQKHYDAIVILLGTGLKISELCGLTDKDLDFENRVIIVSHQLLRNTGVGYYIDEPKTQSGVRKIPMNEEVYQAFQRVIKNRKGAKPFIIDGYANFLFLKQNGYPMTAVDYGGMFGRLVKKYNKSHEEALPKTTTPHAMRHTFCTRLANAGMNPKALQYIMGHSNITMTLNYYAHATFDSARAEMERLAA
notes: additional residue S81 left after SenP2 cleavage of the purification tags; Tn1549 integrase (Int), Enterococcus faecalis, GenBank AAF72368.1, aa 82-397, with R225K; Crystallised with CI5, CI6a and CI6b DNA; also called R225K Int^82N; not shown: His6, N-terminal, cleaved; SUMO, N-terminal, cleaved
B7: binds [5].

B8: Tn1549 Int variant lacking the AB domain (aa 82–397; Int^82N), wild type (domain or fragment, Enterococcus faecalis)
chain: B7 chain with K145R
notes: additional residue S81 left after SenP2 cleavage of the purification tags; Tn1549 integrase (Int), Enterococcus faecalis, GenBank AAF72368.1, aa 82-397 (CB and CAT domains, no AB domain); full length is aa 1-397; Codon-optimised synthetic gene in pETM28 (BamHI/XhoI); also called Int^82N(wt); Tn1549 integrase; not shown: His6, N-terminal, cleaved; SUMO, N-terminal, cleaved
B8 was tested, and the “stoichiometry N” value [6] was 2.

— publication PMC5871717, “Transposase-DNA Complex Structures Reveal Mechanisms for Conjugative Transposition of Antibiotic Resistance” (Cell, 2018)
